This experiment concerns the target chicken type I interleukin-1 receptor (chicken). In words: SPR; BIAcore 3000, 25 °C; chicken IL-1RI (5 μg/ml in 10 mM sodium acetate, pH 5.5) immobilised on a CM5 chip by amine coupling (~370 RU); IL-1β or mutant flowed at 30 μl/min in 10 mM HEPES pH 7.2, 150 mM NaCl, 0.001% Tween-20; 90 s association and dissociation; 1:1 Langmuir fit.

The text below walks through data of publication PMC4899739.

Usually Kd stands for the equilibrium constant for the complex coming apart. A higher Kd goes with a looser complex.

The substance “chicken interleukin-1 beta mutant E118K (ligand)” registered a Kd of 370 pM. In other words, the sub-nanomolar range. Then “chicken interleukin-1 beta mutant T117A (ligand)”, with 230 pM; and “wild-type chicken interleukin-1 beta (ligand)”, with 120 pM.
